Assay results as given in article PMC4344342.

Molecular target: RpL26-eGFP (UniProt P61254)
Assay: fluorescence cross-correlation spectroscopy (FCCS); live HeLa cells co-transfected with the two labelled proteins, two-photon excitation at 1020 nm, green and red channels, cytoplasm

NCp7-mCherry (natural protein)
percent of NCp7-mCherry molecules that cross-correlate with RpL26-eGFP: 40 to 70%
